Consider three molecules from patent publication US20220017635A1.

The target in assay [1] is huTfR with mouse apical domain (human/mouse chimera) (UniProt P02786). Briefly: ELISA on immobilized chimeric TfR.
Assay [2] has as its target chimeric TfR A04 (human/mouse chimera) (UniProt P02786). The assay is described as follows: ELISA on immobilized chimeric TfR. (In general: ELISA stands for enzyme-linked immunosorbent assay.)
Assay [3] deals with chimeric TfR A02 (human/mouse chimera) (UniProt P02786). Briefly: ELISA on immobilized chimeric TfR.
Assay [4] addresses chimeric TfR A03 (human/mouse chimera) (UniProt P02786). The assay is described as follows: ELISA on immobilized chimeric TfR.
Assay [5] has as its target chimeric TfR A05 (human/mouse chimera) (UniProt P02786). Briefly: ELISA on immobilized chimeric TfR; grade = binding relative to His-huTfR (++ 0.5 or more, + 0.2 to less than 0.5).
The target of assay [6] is huTfR with mouse protease-like domain (human/mouse chimera). The assay is described as above.
Chain of huTfR with mouse protease-like domain (human/mouse chimera) (chain, as listed by the source mutant limits assumed): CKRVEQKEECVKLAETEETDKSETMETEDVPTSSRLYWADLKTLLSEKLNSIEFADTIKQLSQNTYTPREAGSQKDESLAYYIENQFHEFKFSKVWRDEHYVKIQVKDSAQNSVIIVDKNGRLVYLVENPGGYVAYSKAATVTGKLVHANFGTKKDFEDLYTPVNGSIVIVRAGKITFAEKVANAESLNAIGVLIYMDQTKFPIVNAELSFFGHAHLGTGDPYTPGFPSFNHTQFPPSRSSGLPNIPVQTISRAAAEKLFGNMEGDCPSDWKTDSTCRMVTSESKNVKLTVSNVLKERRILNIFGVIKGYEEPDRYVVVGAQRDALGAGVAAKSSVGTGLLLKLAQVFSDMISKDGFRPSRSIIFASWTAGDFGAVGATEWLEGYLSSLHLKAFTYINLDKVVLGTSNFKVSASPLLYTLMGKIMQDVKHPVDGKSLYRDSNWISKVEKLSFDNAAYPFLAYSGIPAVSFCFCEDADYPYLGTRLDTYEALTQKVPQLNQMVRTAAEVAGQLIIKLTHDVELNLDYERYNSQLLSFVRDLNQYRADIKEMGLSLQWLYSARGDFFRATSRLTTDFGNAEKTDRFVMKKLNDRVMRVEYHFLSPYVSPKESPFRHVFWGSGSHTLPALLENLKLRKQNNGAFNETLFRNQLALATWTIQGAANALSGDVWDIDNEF
Assay [7] deals with chimeric TfR A07 (human/mouse chimera) (UniProt P02786). The assay is described as above.
Chain of chimeric TfR A07 (human/mouse chimera) (P02786 other isoform, or with tags, fused parts or gaps mutant): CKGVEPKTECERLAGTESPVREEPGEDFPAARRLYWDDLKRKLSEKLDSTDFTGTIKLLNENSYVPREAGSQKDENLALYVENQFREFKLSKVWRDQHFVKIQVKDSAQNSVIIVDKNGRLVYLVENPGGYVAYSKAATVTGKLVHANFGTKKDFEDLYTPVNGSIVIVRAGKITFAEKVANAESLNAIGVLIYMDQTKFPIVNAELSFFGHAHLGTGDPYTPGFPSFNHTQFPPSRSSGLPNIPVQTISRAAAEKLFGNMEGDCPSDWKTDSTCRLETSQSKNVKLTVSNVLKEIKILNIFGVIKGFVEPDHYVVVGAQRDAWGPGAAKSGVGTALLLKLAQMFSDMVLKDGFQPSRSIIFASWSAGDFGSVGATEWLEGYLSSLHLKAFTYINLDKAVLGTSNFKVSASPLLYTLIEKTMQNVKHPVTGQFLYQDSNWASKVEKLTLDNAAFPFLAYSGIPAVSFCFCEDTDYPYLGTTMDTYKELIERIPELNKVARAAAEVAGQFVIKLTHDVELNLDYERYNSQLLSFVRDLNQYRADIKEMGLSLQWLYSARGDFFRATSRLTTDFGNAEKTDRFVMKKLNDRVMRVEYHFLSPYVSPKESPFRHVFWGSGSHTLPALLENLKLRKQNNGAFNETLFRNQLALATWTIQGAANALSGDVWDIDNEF
Assay [8] concerns the target chimeric TfR A14 (human/mouse chimera) (UniProt P02786). Described as above.
The target of assay [9] is chimeric TfR A04 (human/mouse chimera) (UniProt P02786). The description is as above.
Chain of chimeric TfR A04 (human/mouse chimera) (P02786 other isoform, or with tags, fused parts or gaps mutant): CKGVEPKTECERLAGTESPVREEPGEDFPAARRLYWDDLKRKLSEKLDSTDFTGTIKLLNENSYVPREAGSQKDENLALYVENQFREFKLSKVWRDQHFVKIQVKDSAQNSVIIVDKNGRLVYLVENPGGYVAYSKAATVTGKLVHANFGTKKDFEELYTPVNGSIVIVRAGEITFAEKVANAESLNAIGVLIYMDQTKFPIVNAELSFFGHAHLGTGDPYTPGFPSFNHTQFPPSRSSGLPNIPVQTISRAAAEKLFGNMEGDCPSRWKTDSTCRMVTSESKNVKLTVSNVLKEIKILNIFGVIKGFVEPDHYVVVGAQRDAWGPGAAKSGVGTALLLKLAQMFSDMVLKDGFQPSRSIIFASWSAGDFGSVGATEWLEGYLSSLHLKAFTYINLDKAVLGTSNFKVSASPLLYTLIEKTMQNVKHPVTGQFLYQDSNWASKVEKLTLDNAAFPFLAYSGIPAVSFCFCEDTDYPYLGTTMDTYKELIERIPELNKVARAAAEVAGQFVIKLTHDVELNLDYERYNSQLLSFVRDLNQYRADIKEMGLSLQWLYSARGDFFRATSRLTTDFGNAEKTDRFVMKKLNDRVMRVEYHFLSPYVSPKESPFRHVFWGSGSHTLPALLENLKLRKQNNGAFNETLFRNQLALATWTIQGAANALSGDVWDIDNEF
Assay [10] deals with chimeric TfR A03 (human/mouse chimera) (UniProt P02786). Described as above.
Chain of chimeric TfR A03 (human/mouse chimera) (P02786 other isoform, or with tags, fused parts or gaps mutant): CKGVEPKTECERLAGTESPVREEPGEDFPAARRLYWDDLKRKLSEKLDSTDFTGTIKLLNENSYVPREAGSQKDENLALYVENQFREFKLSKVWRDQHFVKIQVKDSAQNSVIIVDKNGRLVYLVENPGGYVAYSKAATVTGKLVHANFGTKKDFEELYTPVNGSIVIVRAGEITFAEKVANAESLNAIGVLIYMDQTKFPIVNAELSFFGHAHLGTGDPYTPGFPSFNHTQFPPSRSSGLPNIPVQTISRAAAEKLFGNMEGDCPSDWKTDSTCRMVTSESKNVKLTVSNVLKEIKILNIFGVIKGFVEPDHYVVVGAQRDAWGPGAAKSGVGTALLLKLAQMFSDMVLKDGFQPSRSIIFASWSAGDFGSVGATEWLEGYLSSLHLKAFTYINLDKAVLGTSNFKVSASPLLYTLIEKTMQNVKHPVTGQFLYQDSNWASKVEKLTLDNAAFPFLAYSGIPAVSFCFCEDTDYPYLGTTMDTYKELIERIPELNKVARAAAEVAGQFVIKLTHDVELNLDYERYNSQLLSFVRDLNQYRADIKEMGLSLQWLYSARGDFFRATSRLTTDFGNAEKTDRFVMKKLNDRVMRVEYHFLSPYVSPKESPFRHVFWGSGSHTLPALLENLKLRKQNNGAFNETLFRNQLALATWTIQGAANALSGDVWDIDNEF

Chain of chimeric TfR A05 (human/mouse chimera) (P02786 other isoform, or with tags, fused parts or gaps mutant): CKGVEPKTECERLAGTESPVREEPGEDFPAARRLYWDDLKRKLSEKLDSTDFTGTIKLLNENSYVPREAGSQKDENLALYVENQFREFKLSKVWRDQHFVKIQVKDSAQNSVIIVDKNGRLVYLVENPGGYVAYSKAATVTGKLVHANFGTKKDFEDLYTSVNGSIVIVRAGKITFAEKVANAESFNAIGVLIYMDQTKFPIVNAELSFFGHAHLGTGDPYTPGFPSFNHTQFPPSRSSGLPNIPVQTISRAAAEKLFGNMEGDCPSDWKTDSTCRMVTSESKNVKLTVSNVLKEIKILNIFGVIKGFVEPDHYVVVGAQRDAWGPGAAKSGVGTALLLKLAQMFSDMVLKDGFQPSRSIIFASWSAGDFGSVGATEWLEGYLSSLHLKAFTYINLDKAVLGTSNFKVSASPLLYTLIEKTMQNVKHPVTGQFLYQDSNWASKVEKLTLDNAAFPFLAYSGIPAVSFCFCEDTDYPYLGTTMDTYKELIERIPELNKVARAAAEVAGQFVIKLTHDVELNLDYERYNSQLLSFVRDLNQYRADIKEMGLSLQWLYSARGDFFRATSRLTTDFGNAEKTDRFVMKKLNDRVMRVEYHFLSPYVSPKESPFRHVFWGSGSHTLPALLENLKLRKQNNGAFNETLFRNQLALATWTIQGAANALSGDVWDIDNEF
Chain of huTfR with mouse apical domain (human/mouse chimera) (P02786 other isoform, or with tags, fused parts or gaps mutant): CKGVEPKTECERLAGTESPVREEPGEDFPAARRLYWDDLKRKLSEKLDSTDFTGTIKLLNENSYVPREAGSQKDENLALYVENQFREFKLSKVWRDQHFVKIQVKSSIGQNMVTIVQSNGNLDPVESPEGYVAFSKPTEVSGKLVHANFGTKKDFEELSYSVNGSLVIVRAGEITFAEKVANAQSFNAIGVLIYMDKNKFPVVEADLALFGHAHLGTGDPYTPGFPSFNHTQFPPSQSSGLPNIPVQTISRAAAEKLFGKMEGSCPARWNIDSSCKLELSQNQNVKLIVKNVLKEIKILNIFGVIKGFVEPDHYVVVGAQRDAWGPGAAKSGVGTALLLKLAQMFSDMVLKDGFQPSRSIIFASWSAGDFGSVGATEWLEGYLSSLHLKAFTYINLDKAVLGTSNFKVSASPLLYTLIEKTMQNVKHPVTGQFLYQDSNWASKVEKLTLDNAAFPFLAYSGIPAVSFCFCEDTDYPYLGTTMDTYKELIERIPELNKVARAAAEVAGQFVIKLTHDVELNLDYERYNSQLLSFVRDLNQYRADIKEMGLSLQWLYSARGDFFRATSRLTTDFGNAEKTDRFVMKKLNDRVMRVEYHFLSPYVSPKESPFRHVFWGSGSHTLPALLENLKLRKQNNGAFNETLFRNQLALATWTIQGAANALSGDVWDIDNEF
Chain of chimeric TfR A14 (human/mouse chimera) (P02786 other isoform, or with tags, fused parts or gaps mutant): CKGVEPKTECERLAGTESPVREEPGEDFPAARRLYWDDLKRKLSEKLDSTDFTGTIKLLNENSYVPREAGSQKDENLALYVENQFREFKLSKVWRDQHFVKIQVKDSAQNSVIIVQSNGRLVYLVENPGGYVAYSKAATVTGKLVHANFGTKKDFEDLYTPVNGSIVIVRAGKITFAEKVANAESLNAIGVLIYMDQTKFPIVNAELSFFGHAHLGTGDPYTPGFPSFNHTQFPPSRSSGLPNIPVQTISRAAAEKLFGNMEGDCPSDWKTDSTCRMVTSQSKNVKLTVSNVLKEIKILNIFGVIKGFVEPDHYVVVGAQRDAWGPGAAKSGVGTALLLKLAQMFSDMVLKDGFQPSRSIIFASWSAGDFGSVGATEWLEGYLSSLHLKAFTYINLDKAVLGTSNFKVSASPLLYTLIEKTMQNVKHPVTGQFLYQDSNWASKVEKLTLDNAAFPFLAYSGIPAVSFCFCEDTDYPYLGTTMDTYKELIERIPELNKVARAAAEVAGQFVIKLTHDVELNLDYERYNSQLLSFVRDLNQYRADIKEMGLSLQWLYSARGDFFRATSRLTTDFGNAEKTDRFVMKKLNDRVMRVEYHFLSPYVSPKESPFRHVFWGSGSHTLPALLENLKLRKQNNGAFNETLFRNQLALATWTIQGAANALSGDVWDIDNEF

B1: 15G11v5 (antibody, from another filing, V domains shown)
VH: EVQLVQSGAEVKKPGASVKVSCKASGYTFTSYWMHWVRQAPGQRLEWIGEINPTNGRTNYIEKFKSRATLTVDKSASTAYMELSSLRSEDTAVYYCARGTRAYHYWGQGTMVTVSS
VL: DIQMTQSPSSLSASVGDRVTITCRASDNLYSNLAWYQQKPGKSPKLLVYDATNLADGVPSRFSGSGSGTDYTLTISSLQPEDFATYYCQHFWGTPLTFGQGTKVEIK
For B1, the ratio of ELISA binding activity (A450-A570) to chimeric TfR over that to His-huTfR in [1] is less than 0.2; in assay [2], less than 0.2; in [3] it was less than 0.2; in assay [4], less than 0.2; in [5], greater than 0.5; in [6], greater than 0.5. Further, the ratio of ELISA binding activity (A450-A570) to chimeric TfR over that to His-huTfR was 0.2 to 0.5 in assay [7] and greater than 0.5 in assay [8].

B2: 16F6v4 (antibody, from another filing, V domains shown)
VH: EVQLVESGPGLVKPSETLSLTCTVSGNSITSEYAWNWIRQPPGKGLEWIGYISYSGTTSYNPSLKSRVTISRDTSKNQLSLKLSSVTAADTAVYYCARYGYGNPATRYFDVWGQGTLVTVSS
VL: DIQMTQSPSSLSASVGDRVTITCRASKSISKYLAWYQQKPGKTNKLLLYSGSTLQSGVPSRFSGSGSGTDYTLTISSLQPEDFATYYCQQHNEYPWTFGQGTKVEIK
Take B2: the ratio of ELISA binding activity (A450-A570) to chimeric TfR over that to His-huTfR is less than 0.2 in assay [1]; less than 0.2 in [3]; 0.2 to 0.5 in assay [9]; greater than 0.5 in assay [5]; greater than 0.5 in [6]; greater than 0.5 in assay [7]. Besides, the ratio of ELISA binding activity (A450-A570) to chimeric TfR over that to His-huTfR in assay [8] and in assay [10] was greater than 0.5 each time.

B3: 7A4v15 (antibody, from another filing, V domains shown)
VH: EVQLVQSGAEVKKPGASVKVSCKGSGYTFTDYAMHWVRQAPGQGLEWMGGISTYFGRTNYNQKFKGRVTMTVDTSISTAYMELSRLRSDDTAVYYCARGLSGNYVMDYWGQGTTVTVSS
VL: DIVMTQSPDSLAVSLGERATINCRASESVDSYGNSFMHWYQQKPGQPPKLLIYRASNLESGVPDRFSGSGSRTDFTLTISSLQAEDVAVYYCQQSNEAPPTFGQGTKLEIK
For the molecule B3, the ratio of ELISA binding activity (A450-A570) to chimeric TfR over that to His-huTfR is less than 0.2 in assay [1]; less than 0.2 in [3]; 0.2 to 0.5 in assay [9]; greater than 0.5 in assay [5]; greater than 0.5 in assay [6]; 0.2 to 0.5 in assay [7]. Also, the ratio of ELISA binding activity (A450-A570) to chimeric TfR over that to His-huTfR in assay [8] and in assay [10] was greater than 0.5 in each case.
